B1: ZNF449 (parent)
chain: RIHSGEEPHKCPECGKRFLRSSDL

Variants of: B1
Assay: protein stability index of a GFP-peptide fusion (GPS, HEK-293T) (PSI 1-6); higher = more stable
Details: c terminus: a fixed tail appended
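Also: lentivirally expressed fusions sorted by FACS into six bins by GFP to DsRed ratio, PSI derived from sequencing read proportions per bin multiplied by bin number.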

Protein stability index, by site and new letter:
H9: Y 3.48; W 2.73; E 3.78; Q 3.19; D 3.5; L 2.19; S 3.28; M 3.42; F 3.95; K 3.83; A 3.42; G 2.99; I 4.09; V 4.15
H3: M 3.05; T 3.81; F 2.63; L 3.69; S 3.74; Y 3.32; V 3.34; E 3.48; G 2.72; N 3.55; A 3.48; D 3.85; R 3.02; K 2.7; Q 4.33; I 3.25; P 3.69; C 3.76
R20: A 4.09; C 3.88; D 3.47
P8: D 4.1; I 4.26; S 3.25; H 3.18; E 3.44; A 3.64; L 3.41; C 3.19; F 2.44; N 3; Q 4.29; T 3.45; K 2.51; W 3.72; M 3.34; Y 3.57
G5: R 3.2; S 4.04; F 3.22; H 4.07; V 3.07; D 3.74; Q 3.82; E 3.62; I 3.34; T 4.24; P 2.85; K 3.41; A 3.79; W 3.63; N 3.44; Y 3.56; M 3.75; L 3.68
F18: P 3.83; E 4.56; M 3.32; K 4.33; C 4.15; I 3.22; S 3.29; Q 3.58; L 2.86; N 4.68; Y 3.87; R 3.33; A 5.36; T 3.75; W 3.5; D 4.4; V 2.92
E7: H 3.45; C 4.79; G 2.81; K 2.46; Q 3.26; Y 2.71; A 2.71; D 2.82; P 2.95; V 2.96; T 3.04; N 2.51; L 2.98; M 3.22; F 2.98; I 2.68; R 1.89
R1: Q 4.11; T 3.37; W 2.28; N 3.72; Y 1.9; V 3.05; S 3.86; P 4.04
G15: P 4.37; W 2.87; Q 3.85; E 4.24; F 3.48; T 3.89; D 3.27; Y 3.44; K 3.63; S 3.76; M 3.88; V 3.25; I 3.6; N 3.52; A 3.9; C 3.28; L 3.58; H 2.87
C14: Y 3.6; G 4.65; R 4.32; L 3.79; F 3.47; E 5.1; I 5; N 4.3; A 4.26; S 4.77; Q 4.96; D 4.58; K 3.87; H 3.95; P 4.06; M 4.21; T 4.69; V 4.21; W 4.39
R17: S 4; Y 3.58; P 3.66; G 3.12; T 3.97; F 3.2; C 3.74; D 3.71; V 3.17; I 3.72; Q 3.63; N 3.4; M 3.59; K 4.13; H 4.23; A 3.61; L 3.08; E 4.2; W 3.97

Reference: the supplement of paper PMC10567573
